Measured values published in the RNAGym collection of RNA variant scans (doi:10.7554/elife.90254).

B1: LINE1-full (parent)
chain: UACGUAGGUGGUUUUCCCCUGAUAGUGCUAAGGGGGCCUGGAAGUUUGGACUGGGCAGAGCUCAACACAGCGUGGCAAAGUGGCUGUGGCUAGACUGCCUCUCUGGAUUCCUCGUCACUCAGCAGGGCAUCUCUGAGAGAAAUGCC

Variants of: B1
Experiment: self-cleavage, relative activity (ratio to wild type); higher = more cleavage; in vitro, sequencing; the parent is a self-cleaving ribozyme

Row | Variant | self-cleavage
1 | U13C G114A | 1.16
2 | U13C G114U | 1.65
3 | U13C G44A | 0.75
4 | U13A U104A | 0.94
5 | U13A U104C | 1.51
6 | U13C A141G | 1.18
7 | U13C A141C | 1.59
8 | U13C A141U | 1.57
9 | U13A G34A | 1.13
10 | U13G U119A | 1.8
11 | U12G U39A | 1.05
12 | U13C A142G | 1.3
13 | U13C U52C | 1.06
14 | U13C U52A | 1.44
15 | U14A A138U | 1.07
16 | U12G A124G | 0.84
17 | U13C A65C | 0.15
18 | U13C A65U | 0.2
19 | U13A A30G | 0.97
20 | U13G A117C | 0.65
21 | U13A A121G | 0.88
22 | U13A C71A | 0.12
23 | U13A U102G | 0.41
24 | U13A U102C | 0.84

Row | Variant | self-cleavage
25 | U13A U20C | 1.03
26 | U13C U130G | 0.95
27 | U13C U109C | 1
28 | U13C U109A | 1.11
29 | U13C A22G | 1.11
30 | U12G U119G | 0.8
31 | U13C A31G | 0.84
32 | U13C A31C | 0.97
33 | U14A C63U | 0.09
34 | U13G U73A | 2.54
35 | U13C C37G | 1.03
36 | U13C C37U | 1.33
37 | U13C C51G | 1.44
38 | U12G U102C | 0.59
39 | U13C U85G | 0.29
40 | U13C U85C | 0.18
41 | U12G U100C | 1.33
42 | U13C A94U | 0.42
43 | U13C A94C | 0.11
44 | U13A A31C | 1.52
45 | U13C C17A | 1.4
46 | U14A A57C | 0.04
47 | U14A A57G | 0.75
48 | U14A A57U | 0.03

Row | Variant | self-cleavage
49 | U14A U26C | 1.95
50 | U12G G34U | 2.48
51 | U12G C90U | 0.08
52 | U14A G48A | 1.09
53 | U13G U15C | 1.47
54 | U13C G70C | 0.15
55 | U14A G137A | 0.77
56 | U13C U100G | 1.63
57 | U13C U20A | 1.07
58 | U13C U26A | 0.97
59 | U13C U26C | 1.01
60 | U12G U14A | 0.44
61 | U12G G32C | 1.04
62 | U13A C28U | 0.76
63 | U13C A138G | 1.6
64 | U13C A92G | 0
65 | U13C A92U | 0.68
66 | U13C G86A | 0.13
67 | U13C U46C | 1.17
68 | U14A U15C | 1.02
69 | U13C U104A | 1.18
70 | U13C U104C | 1.28
71 | U13C G34U | 1.99
72 | U13C A67U | 0.16

Row | Variant | self-cleavage
73 | U13C G88U | 0.09
74 | U13A C110A | 0.84
75 | U13C G82A | 0.72
76 | U13C U81A | 1.56
77 | U12G A77U | 0.78
78 | U12G A77C | 0.69
79 | U13A U96A | 0.05
80 | U13C U108A | 0.91
81 | U13C U108C | 1.37
82 | U12G C99A | 0.32
83 | U13C A64G | 0.35
84 | U13C A79U | 1.53
85 | U13C A79G | 1.25
86 | U12G A140C | 0.48
87 | U12G A140G | 0.91
88 | U13C G55U | 0.22
89 | U13C G55A | 0.23
90 | U12G U20A | 1.08
91 | U13A A140U | 0.89
92 | U14A U23A | 0.72
93 | U14A C51U | 0.97
94 | U13C C63U | 0.32
95 | U14A G36U | 1.12
96 | U13G A142G | 1.41

Row | Variant | self-cleavage
97 | U13C G48U | 0.91
98 | U13A U109A | 0.28
99 | U13C C99G | 0.39
100 | U14A A121G | 0.94
101 | U14A A121C | 1.07
102 | U13C C38U | 1.15
103 | U13G A57U | 0.13
104 | U13G A57G | 1.05
105 | U14A C111A | 0.72
106 | U13A U134A | 0.51
107 | U13A U134G | 1.34
108 | U13C G25A | 1.31
109 | U13A U87C | 0.16
110 | U13A U87A | 0.07
111 | U14A U115C | 1.06
112 | U14A U115A | 0.7
113 | U13C G41U | 1.14
114 | U13G U102C | 0.66
115 | U13A A124G | 0.97
116 | U13A A124U | 0.98
117 | U13A G60C | 0
118 | U13A A65G | 0.08
119 | U13A A65U | 0.09
120 | U14A U96G | 0

Row | Variant | self-cleavage
121 | U13C G139A | 0.92
122 | U13G G34U | 1.2
123 | U14A A107G | 1.1
124 | U12G U91C | 1.02
125 | U13C U132G | 1.02
126 | U14A A69U | 0.06
127 | U14A A69G | 2.24
128 | U13C A69G | 0.5
129 | U12G C103A | 1.15
130 | U13A U45C | 1.01
131 | U14A U47A | 0.81
132 | U13A A136U | 1.22
133 | U13A A136G | 1.38
134 | U13G U115C | 1.39
135 | U14A C90U | 0.04
136 | U13A U46C | 0.77
137 | U13A C133A | 0.97
138 | U13A C133U | 0.67
139 | U13C U39A | 1.33
140 | U13C U39G | 1.54
141 | U13G A141G | 0.94
142 | U14A A42U | 0.47
143 | U14A A42C | 0.97
144 | U14A A42G | 0.98

Row | Variant | self-cleavage
145 | U12G C145G | 0.99
146 | U13G C99U | 0.69
147 | U13A A59G | 0.07
148 | U12G A79U | 1.3
149 | U12G A141U | 1.29
150 | U12G U108A | 0.77
151 | U12G U108C | 1.52
152 | U14A A22U | 1.6
153 | U12G U104A | 1.76
154 | U12G A136G | 1.72
155 | U14A A79G | 0.8
156 | U13A G114A | 1.03
157 | U13A U15A | 0.59
158 | U13C U14A | 0.79
159 | U13C U14C | 1.13
160 | U13A G21U | 0.47
161 | U13C C61U | 0
162 | U12G A69G | 0.77
163 | U13A A22G | 1.05
164 | U13C C131U | 1.79
165 | U14A G55U | 0.28
166 | U14A A136U | 1.19
167 | U13G U100C | 1.17
